Data reported in PMC6657595, “A DNA-Binding Protein Tunes Septum Placement during Bacillus subtilis Sporulation”.

Assays:
[1] = biological target: RefZ-His6 (wild-type RefZ) (Bacillus subtilis); test: crystal structure; RefZ-His6 at ~5 mg/ml, dialyzed into 50 mM Tris-HCl pH 8.5, 300 mM KCl with RBM dsDNA added (4:1 RefZ:DNA); hanging-drop vapor diffusion at 16°C; no DNA seen in the crystal; one molecule in the asymmetric unit of a P4(1)2(1)2 lattice; 2.6 Å
[2] = biological target: T1, RefZ E53K-His6 (Bacillus subtilis 168, UniProt O34970 1-207, E53K); test: BLI; Kd within 2-fold of WT; 150 mM KCl, 10 mM Tris-HCl pH 8.0; EMSA 10 nM DNA, 30 min, gel at room temperature; BLI 800 nM protein, 30 C; conditions: protein: recombinant; tags: C-terminal His6 (pET-24b NheI/XhoI); chain copies: 2; label: 5' biotin on S27 strand; blunt
T1 sequence: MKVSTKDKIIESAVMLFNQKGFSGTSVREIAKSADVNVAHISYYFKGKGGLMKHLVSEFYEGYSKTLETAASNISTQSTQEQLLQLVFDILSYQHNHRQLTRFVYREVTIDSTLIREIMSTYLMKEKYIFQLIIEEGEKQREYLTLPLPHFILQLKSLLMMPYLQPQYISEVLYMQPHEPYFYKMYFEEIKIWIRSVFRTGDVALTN

[3] = biological target: T2, RefZ R116S-His6 (Bacillus subtilis 168, UniProt O34970 1-207, R116S); test: as above; conditions: protein: recombinant; tags: C-terminal His6 (pET-24b NheI/XhoI); chain copies: 2; label: 5' biotin on S27 strand; blunt
T2 sequence: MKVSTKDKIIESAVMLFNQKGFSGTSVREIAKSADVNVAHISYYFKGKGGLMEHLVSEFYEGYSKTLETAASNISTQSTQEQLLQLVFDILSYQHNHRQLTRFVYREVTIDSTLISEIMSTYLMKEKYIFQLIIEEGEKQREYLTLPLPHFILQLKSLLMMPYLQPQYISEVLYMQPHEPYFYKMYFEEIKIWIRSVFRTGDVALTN

[4] = biological target: T3, RefZ E61K-His6 (Bacillus subtilis 168, UniProt O34970 1-207, E61K); test: as above; conditions: protein: recombinant; tags: C-terminal His6 (pET-24b NheI/XhoI); chain copies: 2; label: 5' biotin on S27 strand; blunt
T3 sequence: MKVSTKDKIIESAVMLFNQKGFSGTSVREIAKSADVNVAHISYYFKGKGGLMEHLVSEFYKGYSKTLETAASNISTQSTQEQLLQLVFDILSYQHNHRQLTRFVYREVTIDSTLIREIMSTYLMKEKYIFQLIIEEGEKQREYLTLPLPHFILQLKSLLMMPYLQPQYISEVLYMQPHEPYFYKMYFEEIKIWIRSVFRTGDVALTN

[5] = biological target: T4, RefZ E117D-His6 (Bacillus subtilis 168, UniProt O34970 1-207, E117D); test: as above; conditions: protein: recombinant; tags: C-terminal His6 (pET-24b NheI/XhoI); chain copies: 2; label: 5' biotin on S27 strand; blunt
T4 sequence: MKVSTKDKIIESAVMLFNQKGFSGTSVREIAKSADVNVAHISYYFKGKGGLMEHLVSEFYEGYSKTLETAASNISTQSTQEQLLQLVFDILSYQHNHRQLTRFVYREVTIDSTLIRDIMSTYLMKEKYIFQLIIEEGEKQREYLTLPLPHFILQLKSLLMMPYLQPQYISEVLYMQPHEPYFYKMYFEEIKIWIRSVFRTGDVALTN

[6] = biological target: T5, RefZ R102C-His6 (Bacillus subtilis 168, UniProt O34970 1-207, R102C); test: as above; conditions: protein: recombinant; tags: C-terminal His6 (pET-24b NheI/XhoI); chain copies: 2; label: 5' biotin on S27 strand; blunt
T5 sequence: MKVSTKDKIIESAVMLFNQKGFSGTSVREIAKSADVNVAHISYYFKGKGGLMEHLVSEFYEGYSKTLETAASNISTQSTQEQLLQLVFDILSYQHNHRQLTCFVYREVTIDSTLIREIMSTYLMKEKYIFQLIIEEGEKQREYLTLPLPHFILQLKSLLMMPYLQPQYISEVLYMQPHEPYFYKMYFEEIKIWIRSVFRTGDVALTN

[7] = biological target: T6, RefZ R102S-His6 (Bacillus subtilis 168, UniProt O34970 1-207, R102S); test: as above; conditions: protein: recombinant; tags: C-terminal His6 (pET-24b NheI/XhoI); chain copies: 2; label: 5' biotin on S27 strand; blunt
T6 sequence: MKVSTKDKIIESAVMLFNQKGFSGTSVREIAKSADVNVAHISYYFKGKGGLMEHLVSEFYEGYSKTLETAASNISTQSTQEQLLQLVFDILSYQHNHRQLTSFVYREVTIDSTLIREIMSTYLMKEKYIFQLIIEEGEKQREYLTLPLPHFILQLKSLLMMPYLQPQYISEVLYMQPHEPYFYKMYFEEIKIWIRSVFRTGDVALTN

[8] = biological target: T7, RefZ E179K-His6 (Bacillus subtilis 168, UniProt O34970 1-207, E179K); test: as above; conditions: protein: recombinant; tags: C-terminal His6 (pET-24b NheI/XhoI); chain copies: 2; label: 5' biotin on S27 strand; blunt
T7 sequence: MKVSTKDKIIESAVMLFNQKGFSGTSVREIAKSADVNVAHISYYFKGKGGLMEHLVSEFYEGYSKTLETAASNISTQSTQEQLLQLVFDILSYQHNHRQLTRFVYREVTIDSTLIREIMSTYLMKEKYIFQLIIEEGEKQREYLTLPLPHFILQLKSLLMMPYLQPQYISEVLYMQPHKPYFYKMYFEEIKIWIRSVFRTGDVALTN

[9] = biological target: T8, RefZ E117G-His6 (Bacillus subtilis 168, UniProt O34970 1-207, E117G); test: BLI; within 2-fold of WT, P = 0.025; 150 mM KCl, 10 mM Tris-HCl pH 8.0; EMSA 10 nM DNA, 30 min, gel at room temperature; BLI 800 nM protein, 30 C; conditions: protein: recombinant; tags: C-terminal His6 (pET-24b NheI/XhoI); chain copies: 2; label: 5' biotin on S27 strand; blunt
T8 sequence: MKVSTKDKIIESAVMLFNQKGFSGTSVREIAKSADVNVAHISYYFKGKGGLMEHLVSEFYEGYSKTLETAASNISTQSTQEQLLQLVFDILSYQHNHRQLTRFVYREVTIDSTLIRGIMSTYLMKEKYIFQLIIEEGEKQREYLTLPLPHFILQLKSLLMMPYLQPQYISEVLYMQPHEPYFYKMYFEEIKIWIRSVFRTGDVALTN

[10] = biological target: T9, RefZ-His6 (WT) (Bacillus subtilis PY79, UniProt O34970 1-207); test: BLI; Kd value only in Fig. 6 image; reference; 150 mM KCl, 10 mM Tris-HCl pH 8.0; EMSA 10 nM DNA, 30 min, gel at room temperature; BLI 800 nM protein, 30 C; conditions: protein: recombinant; tags: C-terminal His6 (pET-24b NheI/XhoI); chain copies: 2; label: 5' biotin on S27 strand; blunt
T9 sequence: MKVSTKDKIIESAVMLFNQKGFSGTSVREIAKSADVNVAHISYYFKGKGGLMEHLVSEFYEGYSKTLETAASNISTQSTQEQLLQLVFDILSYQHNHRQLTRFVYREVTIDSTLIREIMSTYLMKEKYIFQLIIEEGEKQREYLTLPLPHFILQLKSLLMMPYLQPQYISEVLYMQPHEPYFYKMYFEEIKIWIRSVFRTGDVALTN

Question: Which stoichiometry N [1] does the source give for “RefZ-His6 (wild-type RefZ) (natural protein)” here?
Answer: 2

B1: RBML1 41-bp (dsDNA)
DNA 1: GCCTTTTCGTTTTGAACAAACGTTTGATTAAAACAAATAGC
DNA 2: GCTATTTGTTTTAATCAAACGTTTGTTCAAAACGAAAAGGC
Question: Does B1 bind [2]?
Answer: binds

Question: Does B1 bind [3]?
Answer: binds

Question: Does B1 bind [4]?
Answer: binds

Question: Does B1 bind [5]?
Answer: binds

Question: Does B1 bind [6]?
Answer: binds

Question: Does B1 bind [7]?
Answer: binds

Question: Does B1 bind [8]?
Answer: binds

Question: Does B1 bind [9]?
Answer: binds

Question: Does B1 bind [10]?
Answer: binds
